Among the data in PMC3072108 (Cell, 2011) are Kd values, retold here.

Broadly, the Kd is the equilibrium constant for the complex coming apart. Read a high Kd as weaker binding.

This experiment concerns the target ubiquitin (UniProt P0CG48 1-76). The experiment is described as follows: NMR titration.

B1: UBC-domain of Ube2S (domain or fragment)
chain: MNSNVENLPPHIIRLVYKEVTTLTADPPDGIKVFPNEEDLTDLQVTIEGPEGTPYAGGLFRMKLLLGKDFPASPPKGYFLTKIFHPNVGANGEICVNVLKRDWTAELGIRHVLLTIKCLLIHPNPESALNEEAGRLLLENYEEYAARARLLTEIHG
For B1, binding was put at a Kd of 1.11 ± 0.08 mM.

B2: Ube2S (enzyme, UniProt Q16763 1-222, looked up)
chain: MNSNVENLPPHIIRLVYKEVTTLTADPPDGIKVFPNEEDLTDLQVTIEGPEGTPYAGGLFRMKLLLGKDFPASPPKGYFLTKIFHPNVGANGEICVNVLKRDWTAELGIRHVLLTIKCLLIHPNPESALNEEAGRLLLENYEEYAARARLLTEIHGGAGGPSGRAEAGRALASGTEASSTDPGAPGGPGGAEGPMAKKHAGERDKKLAAKKKTDKKRALRRL
On to B2, for which binding was characterised by a dissociation constant (Kd) of 1.7 ± 0.08 mM.
